From patent US20210095036A1 (University of Pennsylvania, published 2021) come the findings set out here.

In assay [1] the target is T1, GFRα4 isoform a (GFRα4a), Fc fusion with 6 His (human).
T1 construct: the entry holds the whole fusion; also called GFR4α4a; immobilized GFRα4 isoform a
T1 chain: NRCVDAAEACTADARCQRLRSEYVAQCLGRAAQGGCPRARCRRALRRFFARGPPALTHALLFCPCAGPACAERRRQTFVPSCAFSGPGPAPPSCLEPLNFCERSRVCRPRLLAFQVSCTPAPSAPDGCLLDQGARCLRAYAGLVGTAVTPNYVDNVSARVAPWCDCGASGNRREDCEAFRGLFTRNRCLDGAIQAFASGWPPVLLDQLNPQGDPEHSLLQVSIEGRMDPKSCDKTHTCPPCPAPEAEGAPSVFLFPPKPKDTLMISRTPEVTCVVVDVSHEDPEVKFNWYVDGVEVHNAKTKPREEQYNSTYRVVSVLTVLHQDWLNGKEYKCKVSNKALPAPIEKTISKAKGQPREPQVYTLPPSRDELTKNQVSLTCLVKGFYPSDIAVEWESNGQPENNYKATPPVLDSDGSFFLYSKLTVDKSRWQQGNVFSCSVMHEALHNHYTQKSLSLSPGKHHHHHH
Put plainly: phage ELISA, immobilized GFRα4a; first token of the cell. The text has this:
(§1) To perform these ELISAs, the GFRα4a isoform comprising a portion of GFRα4a (Asn24 -Ser245, UniProt accession #Q9GZZ7-2) was used, followed by a Factor Xa cleavage site/linker, a portion of optimized IgG1 Fc domain (Pro100-Lys330), and 6 His residues for purification. The GFRα4b isoform comprised a portion of GFRα4b (Asn24-Va1274, UniProt #Q9GZZ7-1), followed by a TEV cleavage site linker, and a portion of human IgG1 Fc domain (Asp104-Lys330).
For orientation: An ELISA detects its analyte on a solid surface through an enzyme-linked reagent.

The target in assay [2] is T2, GFRα4 isoform b (GFRα4b), Fc fusion (human).
T2 construct: the entry holds the whole fusion; also called GFR4α4b; GFRα4-Fc
T2 sequence (chain, as listed by the source limits assumed): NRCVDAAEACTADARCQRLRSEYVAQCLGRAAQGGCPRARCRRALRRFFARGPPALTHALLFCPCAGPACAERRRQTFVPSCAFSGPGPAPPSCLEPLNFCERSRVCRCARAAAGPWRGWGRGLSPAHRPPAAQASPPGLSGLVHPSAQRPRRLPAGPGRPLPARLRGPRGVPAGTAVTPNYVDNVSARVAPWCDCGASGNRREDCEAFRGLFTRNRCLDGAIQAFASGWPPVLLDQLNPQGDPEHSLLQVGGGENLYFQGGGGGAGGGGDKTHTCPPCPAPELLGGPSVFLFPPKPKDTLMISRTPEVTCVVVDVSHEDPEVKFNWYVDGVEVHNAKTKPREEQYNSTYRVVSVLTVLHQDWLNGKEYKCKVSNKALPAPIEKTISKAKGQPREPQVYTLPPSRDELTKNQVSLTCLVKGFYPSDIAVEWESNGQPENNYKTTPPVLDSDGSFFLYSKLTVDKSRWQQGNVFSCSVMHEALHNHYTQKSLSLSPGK
Put plainly: phage ELISA, immobilized GFRα4b; second token of the cell.
From the text: as §1

Assay [3] addresses T1, GFRα4 isoform a (GFRα4a), Fc fusion …. Put plainly: phage ELISA, immobilized GFRα4a; first token of the cell (GFRα4b: NT).
From the text: as §1

B1: 29.H2.L1m3 (scFv)
scFv: QLVLTQSPSASASLGASVKLTCTLSSAHKTYTIDWYQQQPEKGPRYLMQVKSDGSYTKGTGVPDRFSGSSSGADRYLTISSLQSEDEADYYCGADDNGGYVFGGGTQLTVTGGGSSRSSSSGGGGSGGGGEVQLVESGGGLVQPGGSLRLSCAASGFTFSRHALTWVRQAPGKGLEWVSAIDNAGTTYYASWAKSRFTISRDNAKNSLYLQMNSLRAEDTAVYYCARVFYDINSGYYLDGMDLWGPGTLVTVSS
notes: pIII not in the entry; order Vλ-linker-VH; The printed VL ends TVT; also called scFv 29
For the molecule B1, the binding result in assay [1] and in assay [2] was “binds” each time.

B2: 21.H2.L1m2 (scFv)
scFv: QFVLTQSPSASASLGASVKLTCTLSSAHKTYTIDWHQQQPEKGPRYLMQVKSDGSYTKGTGIPDRFSGSSSGAERYLTISSLQSEDEADYYCGADDNGGYVFGGGTQLTVLGGGSSRSSSSGGGGSGGGGEVQLVESGGGLVQPGGSLRLSCAASGFTFSRHALTWVRQAPGKGLEWVSAIDNAGTTYYASWAKSRFTISRDNAKNSLYLQMNSLRAEDTAVYYCARVFYDINSGYYLDGMDLWGPGTLVTVSS
notes: pIII not in the entry; order Vλ-linker-VH; also called scFv 21
In the case of B2, the binding result in assay [1] and in assay [2] was “no binding” throughout.

B3: 1.H1.L3 (scFv)
scFv: QSALTQPASVSGSPGQSITISCTGTSAHKTYTVSWYQQHPGKAPKLMIYVKSDGSYNRPSGVSNRFSGSKSGNTASLTISGLQAEDEADYYCGADDNGGYVFGGGTKLTVLGGGSSRSSSSGGGGSGGGGQVQLQESGPGLVKPSETLSLTCAVSGYSISRHALTWIRQPPGKGLEWIGAIDNAGTTYYASWAKSRVTISVDTSKNQFSLKLSSVTAADTAVYYCARVFYDINSGYYLDGMDLWGPGTLVTVSS
notes: pIII not in the entry; order Vλ-linker-VH; also called scFv 1
As to B3, in assay [3], the binding result is given as “no binding”.

B4: 13.H1.L1 (scFv)
scFv: QLVLTQSPSASASLGASVKLTCTLSSAHKTYTIAWHQQQPEKGPRYLMKVKSDGSYSKGDGIPDRFSGSSSGAERYLTISSLQSEDEADYYCGADDNGGYVFGGGTKLTVLGGGSSRSSSSGGGGSGGGGQVQLQESGPGLVKPSETLSLTCAVSGYSISRHALTWIRQPPGKGLEWIGAIDNAGTTYYASWAKSRVTISVDTSKNQFSLKLSSVTAADTAVYYCARVFYDINSGYYLDGMDLWGPGTLVTVSS
notes: pIII not in the entry; order Vλ-linker-VH; also called scFv 13
As for B4, the binding result in assay [3] is on record as “no binding”.

B5: 16.H1m1.L1m1 (scFv)
scFv: QFVLTQSPSASASLGASVKLTCTLSSAHKTYTIDWYQQQPEKGPRYLMQVKSDGSYTKGTGVPDRFSGSSSGADRYLTISSLQSEDEADYYCGADDNGGYVFGGGTQLTVTGGGSSRSSSSGGGGSGGGGQQSVKESGPGLVKPSETLSLTCAVSGFSLSRHALTWVRQPPGKGLEWIGAIDNAGTTYYASWAKSRVTISRNTDLHTVSLKLSSVTAADTAVYFCARVFYDINSGYYLDGMDLWGPGTLVTVSS
notes: pIII not in the entry; order Vλ-linker-VH; also called scFv 16
With B5, the binding result in assay [1] and in assay [2] was “binds” throughout.

B6: 24.H2.L3m1 (scFv)
scFv: QFVLTQPASVSGSPGQSITISCTLSSAHKTYTIDWYQQHPGKAPKYLMQVKSDGSYTKGTGVPNRFSGSSSGADRYLTISGLQAEDEADYVCGADDNGGYVFGGGTQLTVTGGGSSRSSSSGGGGSGGGGEVQLVESGGGLVQPGGSLRLSCAASGFTFSRHALTWVRQAPGKGLEWVSAIDNAGTTYYASWAKSRFTISRDNAKNSLYLQMNSLRAEDTAVYYCARVFYDINSGYYLDGMDLWGPGTLVTVSS
notes: pIII not in the entry; order Vλ-linker-VH; also called scFv 24
As to B6, the binding result in assay [1] and in assay [2] was “binds” in each case.

B7: 11.H2m1.L1 (scFv)
scFv: QLVLTQSPSASASLGASVKLTCTLSSAHKTYTIAWHQQQPEKGPRYLMKVKSDGSYSKGDGIPDRFSGSSSGAERYLTISSLQSEDEADYYCGADDNGGYVFGGGTKLTVLGGGSSRSSSSGGGGSGGGGEQSVKESGGGLVQPGGSLRLSCAASGFTLSRHALTWVRQAPGKGLEWIGAIDNAGTTYYASWAKSRFTISRNTDLHTVYLQMNSLRAEDTAVYFCARVFYDINSGYYLDGMDLWGPGTLVTVSS
notes: pIII not in the entry; order Vλ-linker-VH; The printed entry has an E before QSVKE of the VH; also called scFv 11
Turning to B7, in assay [3], the binding result is listed as “no binding”.
